From publication PMC12133298 come the findings set out here.

This series addresses Rho WT (Escherichia coli) (UniProt P0AG30). Nature of the series: EMSA. The note with it: 4 C, 1 mM ATP, 5 mM Mg2+, 25 mM Tris-Cl pH 8.0, 50 mM KCl, 5 mM MgCl2, 1 mM DTT, 37 C (or 4 C), 15 min, 0.8% agarose 0.5x TBE, 5 nM DNA. (In general: A gel shift assay detects complexes by their altered migration in electrophoresis.)

Rho WT (Escherichia coli), sequence (P0AG30 whole entry): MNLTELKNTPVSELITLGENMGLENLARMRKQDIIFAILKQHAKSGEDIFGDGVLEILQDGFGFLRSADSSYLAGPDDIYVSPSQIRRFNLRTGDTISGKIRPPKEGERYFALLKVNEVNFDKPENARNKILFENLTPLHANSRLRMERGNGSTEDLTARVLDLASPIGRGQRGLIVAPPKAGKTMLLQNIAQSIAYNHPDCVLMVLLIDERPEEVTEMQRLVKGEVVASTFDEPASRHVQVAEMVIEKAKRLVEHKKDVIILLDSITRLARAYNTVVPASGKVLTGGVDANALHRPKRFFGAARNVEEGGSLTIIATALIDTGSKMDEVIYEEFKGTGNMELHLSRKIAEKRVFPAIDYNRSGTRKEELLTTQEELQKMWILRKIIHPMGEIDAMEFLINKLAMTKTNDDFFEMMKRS

In turn, 3.5 kb linear dsDNA had a Kd of 0.012 µM.

By Kd is commonly meant a measure of binding affinity in units of concentration. Read a low Kd as a tighter complex.
